Here are results for 9 molecules from US20240218063A1 (HARPOON THERAPEUTICS, published 2024).

To fix the notation:
T1: human DLL3 on DLL3 expressing cancer cell lines (human, UniProt Q9NYJ7 27-618)
T1 sequence: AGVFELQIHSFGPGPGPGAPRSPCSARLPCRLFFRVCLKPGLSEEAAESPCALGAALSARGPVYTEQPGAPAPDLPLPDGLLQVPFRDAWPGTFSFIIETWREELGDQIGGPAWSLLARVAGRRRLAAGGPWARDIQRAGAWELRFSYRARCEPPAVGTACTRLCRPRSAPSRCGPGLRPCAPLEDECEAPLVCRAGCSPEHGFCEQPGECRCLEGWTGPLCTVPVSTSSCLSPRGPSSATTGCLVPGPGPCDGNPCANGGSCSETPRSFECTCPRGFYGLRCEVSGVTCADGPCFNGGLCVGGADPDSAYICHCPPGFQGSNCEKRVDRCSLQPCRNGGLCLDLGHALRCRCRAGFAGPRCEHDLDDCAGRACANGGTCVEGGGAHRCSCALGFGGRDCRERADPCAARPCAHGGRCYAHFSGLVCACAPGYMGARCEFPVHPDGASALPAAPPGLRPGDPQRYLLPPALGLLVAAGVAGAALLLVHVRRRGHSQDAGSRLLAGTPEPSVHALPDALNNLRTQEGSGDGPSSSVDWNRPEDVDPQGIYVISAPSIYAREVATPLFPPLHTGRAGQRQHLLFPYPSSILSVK

B1: anti-DLL3 trispecific protein 4H011 (other, not shown: small tags and cut ends)
chain: EVQLVESGGGLVQPGGSLTLSCAASGSSVSRLSMAWYRQAPGKKRELVAGISVDGSTDYIDSVKGRFTISRDNAKNSVYLQMNSLRAEDTAVYYCYAYRWTTRLTYWGQGTLVTVSS
B2: anti-DLL3 trispecific protein 4D09 (other, not shown: small tags and cut ends)
chain: EVQLVESGGGLVQPGGSLTLSCAASGSSVKFLSMAWYRQAPGKKRELVAGISADGSTDYILSVKGRFTISRDNAKNSVYLQMNSLRAEDTAVYYCYAYEWTTRYTYWGQGTLVTVSS
B3: anti-DLL3 trispecific protein 4D011 (other, not shown: small tags and cut ends)
chain: EVQLVESGGGLVQPGGSLTLSCAASGSSVRFLSMAWYRQAPGKKRELVAGISVDGSTDYIDSVKGRFTISRDNAKNSVYLQMNSLRAEDTAVYYCYAYRWRTRYTYWGQGTLVTVSS
B4: anti-DLL3 trispecific protein 1A011 (other, not shown: small tags and cut ends)
chain: EVQLVESGGGLVQPGGSLTLSCVASGSTSSINAIGWYRRAPGKQRELVAGISSDGSKVYIDSVKGRFTISRDNAKNSVYLQMNSLRAEDTAVYYCYYFRTVSGSSYRYWGQGTLVTVSS
B5: anti-DLL3 trispecific protein 1H012 (other, not shown: small tags and cut ends)
chain: EVQLVESGGGLVQPGGSLTLSCVASGSTSSINAMGWYRRAPGKQRELVAGISSDGSKVYVDSVKGRFTISRDNAKNSVYLQMNSLRAEDTAVYYCYYFRTVSGSSMPYWGQGTLVTVSS
B6: anti-DLL3 trispecific protein 2E05 (other, not shown: small tags and cut ends)
chain: EVQLVESGGGLVQPGGSLTLSCVASGSPSSINAYGWYRRAPGKQRELVAGISSDGSKVYSDSVKGRFTISRDNAKNSVYLQMNSLRAEDTAVYYCYYFRTVSGSSMSYWGQGTLVTVSS
B7: anti-DLL3 trispecific protein 2C04 (other, not shown: small tags and cut ends)
chain: EVQLVESGGGLVQPGGSLTLSCVASGSTSSRNAMGWYRRAPGKQRELVAGISSDGSKLYADSVKGRFTISRDNAKNSVYLQMNSLRAEDTAVYYCYYFRTVLGSSMRYWGQGTLVTVSS
B8: anti-DLL3 trispecific protein 2E02 (other, not shown: small tags and cut ends)
chain: EVQLVESGGGLVQPGGSLTLSCVASGSTSAINAMGWYRRAPGKQRELVAGISSDGSKVYVDSVKGRFTISRDNAKNSVYLQMNSLRAEDTAVYYCYYFRTVSGSSQRYWGQGTLVTVSS
B9: anti-DLL3 trispecific protein 2H02 (other, not shown: small tags and cut ends)
chain: EVQLVESGGGLVQPGGSLTLSCVASGSTSSINAMAWYRRAPGKQRELAAGISSDGSKVYADSVKGRFTISRDNAKNSVYLQMNSLRAEDTAVYYCYYFHTVSGSSMRYWGQGTLVTVSS

The target in one experiment is T1, human DLL3 on DLL3 expressing cancer …. Briefly: cell-based or functional assay.
On to B1, for which the “fold increase in TDCC potency compared to the parental DLL3 binder DH6” value was above 8 fold.

The target is the same in a further experiment. Briefly: cell-based or functional assay. This is another data set of the same source.
As to B2, the “TDCC EC50, CHO expressed purified protein” value (“TDCC EC50, CHO” for short) stood at 0.06 nM. The same measure, in the same setting: for B3 the value was 0.098 nM.

Consider B4, for which the “TDCC EC50, CHO” value came to 0.17 nM.

Take B5: the “TDCC EC50, CHO” value amounted to 0.063 nM. Still for that read-out and setting: for B6 the value was 0.072 nM; for B7, 0.043 nM.

B8: the “TDCC EC50, CHO” value turned out to be 0.12 nM. In the case of B9, the “TDCC EC50, CHO” value came out at 0.096 nM.
